Laboratory results reported in the supplement of paper PMC9170038.

Test system: MS2 coat protein
Assay: apparent KD of MS2 coat protein; higher = weaker reporter binding
Conditions: Eterna round: R107
In short: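 On-chip transcription from Illumina sequencing clusters produced the designed RNA switches. These were titrated with SNAP-549-labelled MS2 coat protein (twofold steps, 0.7 or 1.5 nM to 3 µM) in 100 mM Tris-HCl pH 7.5, 80 mM KCl, 4 mM MgCl2, with or without constant ligand. The apparent KD given is the per-design median of normalised cluster binding-curve fits.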

[1] = input ligand: theophylline 20 uM
[2] = input ligand: tryptophan 2.4 mM
[3] = input ligand: theophylline 2 mM

Sequence: UGUAUGUGAUCUGAUACCAGUCCCUUGGCAGCAACAUGAGGAUCACCCAUGUAGAUACCAGACCCUUGGCAGCAGAUCGCAUACU [#DoubleAptamer 1]
- apparent KD of MS2 coat protein (input ligand: arginine 13.2 mM): 8.55 nM
- apparent KD of MS2 coat protein [1]: 9.15 nM
- apparent KD of MS2 coat protein [2]: 8.2 nM

Sequence: GGACUAACCUGAAGGAGCGACACGCAGAAACUGCAAAUUCCUCCACACGAGGAUCACCCGUGUCAGGUAGGUCGCAGGUUAGUCG [ArgBX 28]
- apparent KD of MS2 coat protein (input ligand: arginine 13.2 mM): 19 nM
- apparent KD of MS2 coat protein (input ligand: none): 20.2 nM
- apparent KD of MS2 coat protein [1]: 25.7 nM
- apparent KD of MS2 coat protein [3]: 21.6 nM
- apparent KD of MS2 coat protein [2]: 19.2 nM

Sequence: GUCCACAUGAGGAUCACCCAUGUAAGUGGGCGAGGACCGGUACGGCCGCCACUCGACAUGUUGACGAAAAGUCAGCAUGAGGACA [#SwitchBubble 3 #GuTurnoff #Tail]
- apparent KD of MS2 coat protein (input ligand: arginine 13.2 mM): 44.1 nM
- apparent KD of MS2 coat protein (input ligand: none): 108 nM
- apparent KD of MS2 coat protein [1]: 154 nM
- apparent KD of MS2 coat protein [3]: 114 nM
- apparent KD of MS2 coat protein [2]: 101 nM

Sequence: CGAGUGAGUUCAAUCGAAUAACGGUUUUCGCGAGGACCGGUACGGCCGCCACUCGUGUGAUAUCACACAUGAGGAUCACCCAUGU [3'end-1]
- apparent KD of MS2 coat protein (input ligand: arginine 13.2 mM): 34.7 nM
- apparent KD of MS2 coat protein [1]: 49 nM
- apparent KD of MS2 coat protein [3]: 63.4 nM

Sequence: AUGGAGACCUCGGCCGCCACUCUCCAUGAGGAUCUCCCAUGUAACAUGAGGAUCACCCAUGUACUGAGGACCGGGAGGUCCUUGA [Same State Tryptophan B GF 17]
- apparent KD of MS2 coat protein (input ligand: arginine 13.2 mM): 7.9 nM
- apparent KD of MS2 coat protein [1]: 10.8 nM
- apparent KD of MS2 coat protein [3]: 10.1 nM

Sequence: AGACAUGAGGAUCACCCAUGUAGCAUGGAUACCAGAUCCAGAUUUAUCCCUUGGCAGCUGUGGUACAGUGAUGGAUUGCUCCUAG [Exclusion - Theophylline A (Freestyle 8)]
- apparent KD of MS2 coat protein (input ligand: arginine 13.2 mM): 46.3 nM
- apparent KD of MS2 coat protein [1]: 93.6 nM
- apparent KD of MS2 coat protein [2]: 61.9 nM

Sequence: UUCGCGGCCGCGCUGCACAUGUGUGUGUUACGAGGACCGGUACGGCCGCCACUCGCGAUCGCACAUGAGGAUCACCCAUGUGGGA [Exclusion Tryp A GF17]
- apparent KD of MS2 coat protein (input ligand: arginine 13.2 mM): 24.1 nM
- apparent KD of MS2 coat protein (input ligand: none): 25.7 nM
- apparent KD of MS2 coat protein [1]: 35.8 nM
- apparent KD of MS2 coat protein [3]: 75.6 nM
- apparent KD of MS2 coat protein [2]: 1040 nM

Sequence: AGGAAUGUCACGGCCGCCACUGACGCUAAAAUGGGCUCGAGCCGACAUGAGGAUCACCCAUGUUCCAGGACCGGGUGAAUCCUGG [theeternabot_sameState_MS2_Trp_B_40]
- apparent KD of MS2 coat protein (input ligand: arginine 13.2 mM): 102 nM
- apparent KD of MS2 coat protein [1]: 154 nM
- apparent KD of MS2 coat protein [3]: 299 nM

Sequence: AACAUGAGGAUCACCCAUGUCUGAACUGAAGGAGCGCUAAAUAAGGCAGGUAGGUCGCGGAAUUUUGUAUAUAUAUAUAUAUGGG [9.F]
- apparent KD of MS2 coat protein (input ligand: arginine 13.2 mM): 6.01 nM
- apparent KD of MS2 coat protein (input ligand: none): 27.7 nM
- apparent KD of MS2 coat protein [1]: 28.5 nM
- apparent KD of MS2 coat protein [3]: 25 nM
- apparent KD of MS2 coat protein [2]: 20.3 nM

Sequence: UAUAUAUAUCACGAACUGUGGUGUAUGUCUCGAGGACCGGUACGGCCGCCACUCGCGCGGCCUCACAUGAGGAUCACCCAUGUCC [XTryp A #5]
- apparent KD of MS2 coat protein (input ligand: arginine 13.2 mM): 66.9 nM
- apparent KD of MS2 coat protein [1]: 132 nM
- apparent KD of MS2 coat protein [3]: 107 nM

Sequence: GGUUACUCUACGGCCGCCACUGAACAUGAGGAUCACCCAUGUAAUGUUCAGUAGUCUUUAGACAACAGGACCGGGUAGUGUAACC [Tryptophan B 6]
- apparent KD of MS2 coat protein (input ligand: arginine 13.2 mM): 109 nM
- apparent KD of MS2 coat protein [1]: 236 nM
- apparent KD of MS2 coat protein [3]: 271 nM

Sequence: CGGGCCGCUGCGGAUACCAGUUGAGCAUAGGUAGUGUAUGACAUGAGGAUCACCCAUGUUAACCCUUGGCAGCCGAGAGGGCAGA [theeternabot_exclusion_MS2_Theo_B_13]
- apparent KD of MS2 coat protein (input ligand: arginine 13.2 mM): 10.4 nM
- apparent KD of MS2 coat protein (input ligand: none): 11.6 nM
- apparent KD of MS2 coat protein [1]: 20.2 nM
- apparent KD of MS2 coat protein [3]: 15.4 nM
- apparent KD of MS2 coat protein [2]: 10.2 nM

Sequence: UUGCAUAUCUUGGAUACCAGCACAUGAGGAUCACCCAUGUCCGCGGGAUAGCUCCAGAUGUGCCCUUGGCAGCCACAUGCACUUG [Quinzama]
- apparent KD of MS2 coat protein (input ligand: arginine 13.2 mM): 10.9 nM
- apparent KD of MS2 coat protein [1]: 18.4 nM
- apparent KD of MS2 coat protein [2]: 10.7 nM

Sequence: CGCUACAUGAGGAUCACCCAUGUUACUCCGCGAGGACCGGUACGGCCGCCACUCGGCAGUUUGCGCCGCCGGAGGCACUCUUCAG [theeternabot_sameState_MS2_Trp_A_32]
- apparent KD of MS2 coat protein (input ligand: arginine 13.2 mM): 20.9 nM
- apparent KD of MS2 coat protein [1]: 43.6 nM
- apparent KD of MS2 coat protein [3]: 33.7 nM

Sequence: UUCAAAGGGAACGGUGCUGGUAACAGAGAUACCAGAGUAAUAAUACUCCCUUGGCAGCUCAUAACAUGAGGAUCACCCAUGUAAU [Exclusion Theophylline A GF21]
- apparent KD of MS2 coat protein (input ligand: arginine 13.2 mM): 12.4 nM
- apparent KD of MS2 coat protein [1]: 17.4 nM
- apparent KD of MS2 coat protein [2]: 13.5 nM
